Data from patent US20230312718A1 (Regeneron, published 2023).

Target: T1, MUC16 on OVCAR-3 cells (human, UniProt Q8WXI7 1-14507)
T1 construct: whole, on cells
Assay: FACS binding to OVCAR-3 cells

binding result: binds
B1: BSMUC16/CD3-001 (bispecific antibody, V domains shown)
VH 1: QVQLVESGGGLVKPGGSLRLSCAASGFTFSNYYMSWVRQAPGKGLEWISYISGRGSTIFYADSVKGRITISRDNAKNSLFLQMNSLRAEDTAVYFCVKDRGGYSPYWGQGTLVTVSS
VH 2: EVQLVESGGGLVQPGRSLRLSCAASGFTFDDYSMHWVRQAPGKGLEWVSGISWNSGSKGYADSVKGRFTISRDNAKNSLYLQMNSLRAEDTALYYCAKYGSGYGKFYHYGLDVWGQGTTVTVSS
VL: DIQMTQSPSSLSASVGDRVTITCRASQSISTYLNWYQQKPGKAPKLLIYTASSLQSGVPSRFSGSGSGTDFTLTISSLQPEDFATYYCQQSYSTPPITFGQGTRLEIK
notes: It was biotinylated in the ELISA and 89Zr-DFO labelled in the PET study; also called REGN4018; ubamatamab
